Measurements from publication PMC7841149.

Biological target: integrin α5 on preosteoblastic MC3T3-E1 cells (mouse (endogenous in MC3T3-E1)) (UniProt P11688)
UniProt P11688, sequence (P11688 45-1053): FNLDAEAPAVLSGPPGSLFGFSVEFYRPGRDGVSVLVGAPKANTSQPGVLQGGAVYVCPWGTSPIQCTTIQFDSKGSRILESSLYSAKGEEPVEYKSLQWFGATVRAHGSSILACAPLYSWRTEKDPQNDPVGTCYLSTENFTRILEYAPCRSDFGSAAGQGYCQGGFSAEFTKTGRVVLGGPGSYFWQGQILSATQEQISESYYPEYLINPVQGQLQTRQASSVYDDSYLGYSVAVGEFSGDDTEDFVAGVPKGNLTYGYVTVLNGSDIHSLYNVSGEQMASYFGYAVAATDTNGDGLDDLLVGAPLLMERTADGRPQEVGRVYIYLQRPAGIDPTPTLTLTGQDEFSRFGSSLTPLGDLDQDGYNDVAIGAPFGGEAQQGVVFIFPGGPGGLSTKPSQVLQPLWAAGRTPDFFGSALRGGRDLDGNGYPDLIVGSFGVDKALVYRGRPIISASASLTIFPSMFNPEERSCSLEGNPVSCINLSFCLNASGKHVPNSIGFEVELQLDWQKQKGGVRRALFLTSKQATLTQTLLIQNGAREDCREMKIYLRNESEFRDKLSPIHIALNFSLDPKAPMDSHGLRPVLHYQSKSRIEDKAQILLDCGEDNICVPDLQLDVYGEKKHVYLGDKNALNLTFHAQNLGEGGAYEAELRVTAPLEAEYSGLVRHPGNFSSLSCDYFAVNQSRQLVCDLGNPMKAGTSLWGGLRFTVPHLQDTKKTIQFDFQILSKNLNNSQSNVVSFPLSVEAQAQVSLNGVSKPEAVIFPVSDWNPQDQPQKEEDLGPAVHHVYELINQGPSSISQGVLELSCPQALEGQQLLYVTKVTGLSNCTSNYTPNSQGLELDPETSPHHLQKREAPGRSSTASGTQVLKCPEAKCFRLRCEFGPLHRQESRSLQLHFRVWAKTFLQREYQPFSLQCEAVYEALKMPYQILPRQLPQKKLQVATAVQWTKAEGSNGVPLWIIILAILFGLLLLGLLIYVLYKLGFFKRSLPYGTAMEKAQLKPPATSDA

Which results are given for “connective tissue growth factor (CTGF), recombinant (from UniProt P29279 27-349) (ligand)”?
forward migration index (FMI) of MC3T3-E1 cells toward a gradient of 150 ng/ml CTGF with neutralizing integrin α5 antibody (5 μg/ml pretreatment, 15 μg/ml in the reservoir), 12 h: 0.02; forward migration index (FMI) of MC3T3-E1 cells toward a gradient of 150 ng/ml CTGF, μ-slide chemotaxis chamber, 12 h, CTGF group without antibody: 0.5; migration distance of MC3T3-E1 cells toward a gradient of 150 ng/ml CTGF with neutralizing integrin α5 antibody, 12 h: 129 μm; migration distance of MC3T3-E1 cells toward a gradient of 150 ng/ml CTGF, 12 h, CTGF group without antibody: 162 μm; velocity of MC3T3-E1 cells migrating toward a gradient of 150 ng/ml CTGF with neutralizing integrin α5 antibody, 12 h: 0.25 μm/min; velocity of MC3T3-E1 cells migrating toward a gradient of 150 ng/ml CTGF, 12 h, CTGF group without antibody: 0.32 μm/min
